Data published in patent US20220133913A1 (KOREA BASIC SCIENCE INSTITUTE, published 2022).

Experiments:
[1] = target: T1, human αvβ3 integrin ITGAVB3 (human, UniProt P06756 31-992; P05106 27-718, limits assumed); assay: phage ELISA, coated ITGAVB3, anti-M13-HRP, 490 nm; helper phage control
T1 construct: Recombinant heterodimer used as immunogen, ELISA coating and SPR ligand; also called A5B3; A5b3

[2] = target: T1, human αvβ3 integrin ITGAVB3; assay: ELISA of soluble VHH (TG1 lysate), induced at 37 C, coated ITGAVB3
[3] = target: T1, human αvβ3 integrin ITGAVB3; assay: ELISA of soluble VHH, induced at 30 C; coating not given
[4] = target: T1, human αvβ3 integrin ITGAVB3; assay: ELISA of soluble VHH (TG1 lysate), induced at 30 C, coated ITGAVB3
[5] = target: T1, human αvβ3 integrin ITGAVB3; assay: phage ELISA, coated ITGAVB3, anti-M13-HRP, 490 nm
Protocol: Further, in order to perform phage ELISA, 2.5 μg/mL to […] of a target protein and a control protein were coated at 4 degrees C. using a coating buffer, and the wells were washed 3 times with 200 μL washing buffer per well. The wells were blocked with 200 μL PBS-M for two hours at room temperature. The blocking buffer was removed and the plate was washed 6 times with the washing solution. Thereafter, 100 μL of phage solution was added to the washing buffer per well and incubation was executed at room temperature for 1 to 2 hours. Then, washing was performed 6 times with washing buffer. HRP-binding anti-M13 antibody (GE healthcare) was diluted with 1:5,000 blocking buffer. 100 μL of diluted conjugate was added onto each well, and incubation was performed at room temperature for 1 hour, and washing was carried out 6 times with washing buffer. The HRP substrate solution was prepared as follows: A stock solution of OPD was prepared by dissolving 22 mg OPD (Sigma) in 100 mL of […] sodium citrate (pH 4.0), and 36 μL 30% H₂O₂ was added to 21 mL of OPL stock solution immediately before the detection step. 100 μL of substrate solution was added to each well and incubation was performed for 30 minutes at room temperature. Plates were analyzed using a micro plate reader set at 490 nm.

[6] = target: T1, human αvβ3 integrin ITGAVB3; assay: ELISA of soluble VHH, induced at 37 C; coating not given
[7] = target: T1, human αvβ3 integrin ITGAVB3; assay: SPR, αvβ3 integrin immobilised on a CMDH chip (Reichert SR7500DC), nanobody as analyte; fitted kd from the table box in the panel; the box prints no unit, s^-1 is from the head of Table 8, where the text prints this cell as 8.02(2)e4
Protocol: (§1) Specifically, a CMDH chip (Carboxymethyl Dextran Hydrogel Surface Sensor Chip, Reichert Technologies) coated with Dextran was mounted on an SPR equipment (Reichert SR7500DC system) to perform immobilization of αᵥβ₃ integrin antigen. Then, an analysis of the affinity of the selected antibody based on the concentration was performed.

[8] = target: T1, human αvβ3 integrin ITGAVB3; assay: SPR, αvβ3 integrin immobilised on CMDH chip, nanobody as analyte
Protocol: as §1

T1 sequence (P06756 31-992 limits assumed, chain 1 of 2): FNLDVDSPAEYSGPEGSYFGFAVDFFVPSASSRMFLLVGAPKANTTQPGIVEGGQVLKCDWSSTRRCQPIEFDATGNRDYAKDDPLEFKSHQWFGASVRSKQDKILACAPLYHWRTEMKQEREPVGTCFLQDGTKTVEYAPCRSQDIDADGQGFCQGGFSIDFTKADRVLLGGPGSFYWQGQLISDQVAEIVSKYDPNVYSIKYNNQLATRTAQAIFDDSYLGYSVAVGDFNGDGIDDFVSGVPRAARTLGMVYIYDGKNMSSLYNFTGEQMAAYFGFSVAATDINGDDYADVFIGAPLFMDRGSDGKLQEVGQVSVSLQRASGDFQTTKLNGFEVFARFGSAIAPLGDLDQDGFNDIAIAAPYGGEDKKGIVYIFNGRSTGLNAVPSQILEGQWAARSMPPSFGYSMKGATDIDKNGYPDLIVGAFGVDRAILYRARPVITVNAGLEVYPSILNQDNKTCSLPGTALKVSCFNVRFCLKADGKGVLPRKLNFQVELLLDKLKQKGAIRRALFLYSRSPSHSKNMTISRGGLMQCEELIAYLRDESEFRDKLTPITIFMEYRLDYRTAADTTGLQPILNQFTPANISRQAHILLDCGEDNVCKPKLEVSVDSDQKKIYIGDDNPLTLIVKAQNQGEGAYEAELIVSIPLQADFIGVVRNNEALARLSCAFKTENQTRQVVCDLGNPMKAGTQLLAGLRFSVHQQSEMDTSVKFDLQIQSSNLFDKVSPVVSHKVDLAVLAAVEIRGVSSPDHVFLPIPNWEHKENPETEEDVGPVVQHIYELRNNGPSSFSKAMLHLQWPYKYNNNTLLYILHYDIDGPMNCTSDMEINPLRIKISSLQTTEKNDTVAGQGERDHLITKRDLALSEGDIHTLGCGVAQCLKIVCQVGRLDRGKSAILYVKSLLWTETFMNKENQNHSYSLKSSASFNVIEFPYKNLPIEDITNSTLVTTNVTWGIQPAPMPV
T1 sequence (P05106 27-718 limits assumed, chain 2 of 2): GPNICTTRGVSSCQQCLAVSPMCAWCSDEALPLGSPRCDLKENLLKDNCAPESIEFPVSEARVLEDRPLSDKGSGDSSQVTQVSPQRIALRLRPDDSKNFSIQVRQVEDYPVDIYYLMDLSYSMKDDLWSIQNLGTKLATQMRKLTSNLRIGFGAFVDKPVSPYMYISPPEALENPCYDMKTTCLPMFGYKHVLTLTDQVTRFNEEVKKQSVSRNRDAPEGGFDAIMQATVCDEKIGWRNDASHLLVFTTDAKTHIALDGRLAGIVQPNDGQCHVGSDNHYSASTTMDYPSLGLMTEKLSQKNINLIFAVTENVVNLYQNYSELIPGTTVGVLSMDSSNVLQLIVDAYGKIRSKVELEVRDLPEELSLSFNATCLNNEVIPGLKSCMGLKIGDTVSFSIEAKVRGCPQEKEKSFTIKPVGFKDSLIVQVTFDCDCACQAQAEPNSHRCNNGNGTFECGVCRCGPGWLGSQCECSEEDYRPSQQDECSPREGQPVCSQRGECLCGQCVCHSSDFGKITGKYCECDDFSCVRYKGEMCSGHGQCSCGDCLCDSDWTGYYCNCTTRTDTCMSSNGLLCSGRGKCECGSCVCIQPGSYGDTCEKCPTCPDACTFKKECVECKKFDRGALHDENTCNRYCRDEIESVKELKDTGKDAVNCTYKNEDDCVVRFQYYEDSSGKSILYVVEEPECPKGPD

M13KO7 helper phage
OD490 [1]: 0.09

B1: VHH-11 (VHH)
VHH: DVQLVESGGGSVQPGESLRLSCVASGYTVSSSCMAWFRQAPGKEREVVATIVVTSDTTSTFYADSVKGRFTISPDNAKNTLNLQMNSLEPSDTAMYYCAADRKWNVCSRGYRYTPNWANQFTFWGQGTLVTVSS
notes: also called clone 11
OD490 [2]: 0.64 | OD490 [3]: 0.148 | OD490 [4]: 0.334 | OD490 [5]: 2.07 | OD490 [6]: 0.119

B2: VHH-13 (VHH)
VHH: HVQLVESGGGSVQPGESLRLSCVASGYTVSSSCMAWFRQAPGKEREVVATIVVTSDTTSTFYADSVKGRFTISPDNAKNTLNLQMNSLEPSDTAMYYCAADRKWNVCSRGYRYTPNWANQFTFWGQGTQVTVSS
notes: also called clone 13
OD490 [2]: 2 | OD490 [3]: 0.161 | OD490 [4]: 2 | OD490 [5]: 2.01 | OD490 [6]: 0.187

B3: VHH-15 (VHH)
VHH: EVQLVESGGGSVQPGESLRLSCVASGYTVSSSCMAWFRQAPGKEREVVATIVVTSDTTSTFYADSVKGRFTISPDNAKNTLNLQMNSLEPPDTAMYYCAADRKWNVCSRGYRYTPNWANQFTFWGQGTQVTVSS
notes: also called clone 15
OD490 [2]: 0.132 | OD490 [3]: 0.146 | OD490 [4]: 0.179 | OD490 [5]: 1.97 | OD490 [6]: 0.121

B4: VHH-17 (VHH)
VHH: DVQLVESGGGSVQPGESLRLSCVASGYTVSSSCMAWFRQAPGKEREVVATIVVTSDTTSTFYADSVKGRFTISPDNAKNTLNLQMNSLEPSDTAMYYCAADRKWNVCSRGYRYTPNWANQFTFWGQGTLVTVSS
notes: also called clone 17
OD490 [2]: 0.191 | OD490 [3]: 0.118 | OD490 [4]: 0.243 | OD490 [5]: 1.81 | OD490 [6]: 0.125

B5: VHH-23 (VHH)
VHH: HVQLVESGGGSVQTGGSLRLSCAASGYTSSTVYMAWFRQTPGKQREGVAAIYTGGGPTYYADSVKGRFTISQDNAKNTVYLQMNTLKPEDTAMYYCAADRYVYRLVTNWYRPSFYTYWGQGTQVTVSS
notes: also called clone 23
OD490 [2]: 0.16 | OD490 [3]: 0.141 | OD490 [4]: 0.179 | OD490 [5]: 2.04 | OD490 [6]: 0.113

B6: VHH-16 (VHH)
VHH: DVQLVESGGGSVQPGGSLRLSCAASGYTVENSCMAWFRQAPGKEREVVATIVTNNATGTFYADSVKGRFTVSQDNAKNTLNLQMNSLEPEDTAMYYCAADTKWIVCSRGYRYTPNWANQFKYWGQGTQVTVSS
notes: also called clone 16
OD490 [2]: 1.68 | OD490 [3]: 2.02 | OD490 [4]: 1.75 | OD490 [5]: 2.07 | OD490 [6]: 1.02

B7: VHH-20 (VHH)
VHH: DVQLVESGGGSVQPGGSLRLSCAASGYTVDNSCMAWFRQAPGKEREVVATIVTNNATSTFYADSVKGRFTVSHDNAKNTLNLQMNTLEPEDTAMYYCAADTKWIVCSRGYRYTPNWANHFNYWGQGTLVTVSS
notes: also called clone 20
OD490 [2]: 0.144 | OD490 [3]: 0.108 | OD490 [4]: 0.129 | OD490 [5]: 1.98 | OD490 [6]: 0.111

B8: single-domain antibody VHH-25 containing lysin and His6 tags (VHH)
VHH: EVQLVESGGGSVQAGGSLRLSCVVSGYTCSVYDMIWYRQPPGKEREFVSLINSNGRTTYADSVKGRFTISQNNAKNTVYLQMNSLKPEDTAMYYCHAACYSPSRLNYWGQGTQVTVSS
notes: also called Nanobody #25-Lys; VHH-25-K1; not shown: C-terminal lysine tag and His6 tag with any linker
koff [7]: 0.000802 s⁻¹ | Kd [8]: 4.64 nM | koff [8]: 0.000802 s⁻¹ | kon [8]: 173000 M⁻¹ s⁻¹

B9: VHH-25 (VHH)
VHH: EVQLVESGGGSVQAGGSLRLSCVVSGYTCSVYDMIWYRQPPGKEREFVSLINSNGRTTYADSVKGRFTISQNNAKNTVYLQMNSLKPEDTAMYYCHAACYSPSRLNYWGQGTQVTVSS
notes: also called clone 25
OD490 [2]: 2.03 | OD490 [3]: 1.05 | OD490 [4]: 2.01 | OD490 [5]: 2.03 | OD490 [6]: 0.193

B10: VHH-22 (VHH)
VHH: QVQLVESGGGSVQAGGSLRLSCVVSGYTCSVYDMIWYRQPPGKEREFVSLINSNGRTTYADSVKGRFTISQNNAKNTVYLQMNSLKPEDTAMYYCHAACYSPSRLNYWGQGTLVTVSS
notes: also called clone 22
OD490 [2]: 1.98 | OD490 [3]: 1.21 | OD490 [4]: 1.98 | OD490 [5]: 2.04 | OD490 [6]: 0.386
